In patent US20240209106A1 (BEIGENE SWITZERLAND, published 2024):
One block for each binder: values may come before it.

Assays:
[1] = target: T1, full-length human CD137 (huCD137) (human, UniProt Q07011 24-255); experiment: flow cytometry on Hut78/huCD137 cells [panel B]
T1 construct: On transduced Hut78 cells (Hut78/huCD137), transiently on HEK293 cells, or natively on PBMC/T cells; also called TNFRSF9; 4-1BB

human CEA on cells [2] = target: T2, human CEA on cells (human, UniProt P06731 35-685); experiment: flow cytometry on CT26/CEA cells [panel A]
T2 construct: whole, on cells; also called CT26/CEA; MKN45
T2 sequence (looked up): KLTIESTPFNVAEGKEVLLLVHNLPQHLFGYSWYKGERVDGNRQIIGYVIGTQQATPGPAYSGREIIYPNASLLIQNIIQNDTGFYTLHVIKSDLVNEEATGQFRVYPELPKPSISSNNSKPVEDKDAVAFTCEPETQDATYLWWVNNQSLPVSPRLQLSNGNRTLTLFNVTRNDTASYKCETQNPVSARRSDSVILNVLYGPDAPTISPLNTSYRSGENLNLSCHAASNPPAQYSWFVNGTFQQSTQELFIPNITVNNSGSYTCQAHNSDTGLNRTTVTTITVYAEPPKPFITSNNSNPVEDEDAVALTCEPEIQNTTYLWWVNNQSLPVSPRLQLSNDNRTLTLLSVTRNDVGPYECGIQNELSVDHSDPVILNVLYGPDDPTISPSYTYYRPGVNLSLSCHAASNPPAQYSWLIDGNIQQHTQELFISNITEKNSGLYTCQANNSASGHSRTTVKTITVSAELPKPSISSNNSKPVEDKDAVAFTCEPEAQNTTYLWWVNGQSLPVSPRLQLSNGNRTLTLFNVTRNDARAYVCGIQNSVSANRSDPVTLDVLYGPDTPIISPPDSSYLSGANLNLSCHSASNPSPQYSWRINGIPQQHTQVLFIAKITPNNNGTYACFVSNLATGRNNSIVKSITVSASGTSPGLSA

human CEA on cells [3] = target: T2, human CEA on cells; experiment: flow cytometry on MKN45 cells [panel A]
[4] = target: T1, full-length human CD137 (huCD137); experiment: flow cytometry ligand competition on Hut78/huCD137: human CD137 ligand ECD-mIgG2a in the presence of serially diluted antibody, ligand detected with goat anti-murine IgG-APC; blocked ligand: m5
TNFRSF1B(CD120b) = target: T3, TNFRSF1B(CD120b) (UniProt P20333 23-257); experiment: antigen ELISA, receptor coated at 10 ug/ml, detection with HRP anti-human IgG
T3 construct: Bought protein
T3 sequence (looked up): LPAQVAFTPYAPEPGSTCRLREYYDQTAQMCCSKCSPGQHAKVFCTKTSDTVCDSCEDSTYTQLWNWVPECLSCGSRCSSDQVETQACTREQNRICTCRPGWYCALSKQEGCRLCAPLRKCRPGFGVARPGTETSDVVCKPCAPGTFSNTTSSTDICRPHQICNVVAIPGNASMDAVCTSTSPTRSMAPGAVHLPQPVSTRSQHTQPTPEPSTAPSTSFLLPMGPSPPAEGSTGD

TNFRSF1A(CD120a) = target: T4, TNFRSF1A(CD120a) (UniProt P19438 22-211, limits assumed); experiment: as above
T4 construct: Bought protein
T4 sequence (looked up): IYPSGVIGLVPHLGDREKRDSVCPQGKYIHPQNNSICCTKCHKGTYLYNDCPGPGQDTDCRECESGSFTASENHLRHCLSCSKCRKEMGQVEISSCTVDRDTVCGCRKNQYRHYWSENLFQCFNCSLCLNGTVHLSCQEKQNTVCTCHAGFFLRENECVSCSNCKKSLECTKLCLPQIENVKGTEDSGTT

TNFRSF7(CD27) = target: T5, TNFRSF7(CD27) (UniProt P26842 21-192, limits assumed); experiment: as above
T5 construct: Bought protein
T5 sequence (looked up): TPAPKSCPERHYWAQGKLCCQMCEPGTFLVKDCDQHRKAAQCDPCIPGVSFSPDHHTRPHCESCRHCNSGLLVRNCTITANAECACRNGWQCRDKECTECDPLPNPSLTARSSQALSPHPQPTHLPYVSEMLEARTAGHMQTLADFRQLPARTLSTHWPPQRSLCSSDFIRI

human CD40 ECD = target: T6, human CD40 ECD (human, UniProt P25942 21-194); experiment: as above
T6 construct: also called TNFRSF5(CD40); huCD40

human CD137 ECD-mIgG2a [5] = target: human CD137 ECD-mIgG2a (human); experiment: SPR, multispecific antibody captured on anti-human IgG Fc chip, human CD137 ECD-mIgG2a flowed over; Table 15, comparison run with the affinity-matured variants
human CD137 ECD-mIgG2a [6] = target: human CD137 ECD-mIgG2a (human); experiment: SPR, antibody captured on anti-human Fc surface; analyte taken as human CD137 ECD-mIgG2a
human CD137 ECD-mIgG2a [7] = target: human CD137 ECD-mIgG2a (human); experiment: SPR, human CD137 ECD-mIgG2a
[8] = target: T1, full-length human CD137 (huCD137); experiment: flow cytometry on Hut78/huCD137 cells
recombinant CEA protein = target: T7, recombinant CEA protein (human, UniProt P06731 35-685, limits assumed); experiment: method and CEA construct not stated (TAA KD)
T7 construct: also called recombinant soluble CEA; in-house made recombinant CEA proteins
T7 sequence (looked up): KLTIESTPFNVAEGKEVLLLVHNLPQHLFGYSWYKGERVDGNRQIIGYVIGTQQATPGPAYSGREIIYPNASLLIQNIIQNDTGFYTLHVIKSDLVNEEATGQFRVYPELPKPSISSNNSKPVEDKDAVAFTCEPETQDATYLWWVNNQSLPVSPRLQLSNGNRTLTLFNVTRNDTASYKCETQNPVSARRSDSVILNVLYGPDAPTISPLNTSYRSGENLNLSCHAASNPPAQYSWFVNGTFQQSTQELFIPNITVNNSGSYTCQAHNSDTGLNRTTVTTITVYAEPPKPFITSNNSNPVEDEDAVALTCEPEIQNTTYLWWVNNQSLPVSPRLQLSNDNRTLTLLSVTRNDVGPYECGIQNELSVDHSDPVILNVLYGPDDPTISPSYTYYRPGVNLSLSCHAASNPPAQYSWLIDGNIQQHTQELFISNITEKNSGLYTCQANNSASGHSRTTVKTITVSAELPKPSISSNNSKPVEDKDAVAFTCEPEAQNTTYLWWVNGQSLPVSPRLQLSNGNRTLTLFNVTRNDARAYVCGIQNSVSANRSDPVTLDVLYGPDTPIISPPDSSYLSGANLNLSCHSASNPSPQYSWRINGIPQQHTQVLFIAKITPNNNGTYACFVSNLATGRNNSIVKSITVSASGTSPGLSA

[9] = target: T8, human CD137 ECD (AA 24-183) (human, UniProt Q07011 24-183); experiment: method and huCD137 construct not stated
T8 construct: also called huCD137

[10] = target: T9, GPC3 (protein used for the TAA KD of Table 23) (UniProt P51654 25-559, limits assumed); experiment: method and GPC3 construct not stated (TAA KD)
T9 construct: also called Glypican 3

[11] = target: T10, Glypican 3 (GPC3) on cells (human, UniProt P51654 25-554); experiment: flow cytometry on HepG2 cells [panel C]
T10 construct: whole, on cells; also called HepG2; Huh7
T10 sequence (P51654 25-554 limits assumed): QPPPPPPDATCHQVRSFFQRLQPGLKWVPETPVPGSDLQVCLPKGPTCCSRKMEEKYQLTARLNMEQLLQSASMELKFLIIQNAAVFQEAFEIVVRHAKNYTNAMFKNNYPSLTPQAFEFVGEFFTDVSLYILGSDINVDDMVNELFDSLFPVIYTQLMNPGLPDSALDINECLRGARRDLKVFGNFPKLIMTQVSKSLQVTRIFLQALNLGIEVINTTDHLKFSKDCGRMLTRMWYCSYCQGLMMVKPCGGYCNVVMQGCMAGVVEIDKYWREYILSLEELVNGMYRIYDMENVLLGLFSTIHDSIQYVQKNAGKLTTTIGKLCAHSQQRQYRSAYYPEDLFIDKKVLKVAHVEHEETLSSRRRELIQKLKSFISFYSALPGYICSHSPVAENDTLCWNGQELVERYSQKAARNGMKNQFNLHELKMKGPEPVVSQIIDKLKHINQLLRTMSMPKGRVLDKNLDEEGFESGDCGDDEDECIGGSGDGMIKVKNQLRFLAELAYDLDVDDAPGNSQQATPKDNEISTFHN

human CD137 ECD-mIgG2a (human), sequence (chain, as listed by the source limits assumed): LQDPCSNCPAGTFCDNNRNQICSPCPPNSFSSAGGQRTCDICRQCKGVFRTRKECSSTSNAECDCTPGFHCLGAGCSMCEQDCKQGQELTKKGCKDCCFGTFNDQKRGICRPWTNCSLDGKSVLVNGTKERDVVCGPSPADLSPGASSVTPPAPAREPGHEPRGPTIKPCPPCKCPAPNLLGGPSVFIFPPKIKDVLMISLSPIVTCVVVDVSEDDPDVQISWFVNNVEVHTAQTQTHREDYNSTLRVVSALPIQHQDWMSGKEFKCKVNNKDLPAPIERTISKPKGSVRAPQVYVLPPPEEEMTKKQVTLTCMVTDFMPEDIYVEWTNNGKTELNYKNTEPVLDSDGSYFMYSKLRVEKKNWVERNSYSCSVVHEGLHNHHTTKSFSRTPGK
T1 sequence (Q07011 24-255 limits assumed): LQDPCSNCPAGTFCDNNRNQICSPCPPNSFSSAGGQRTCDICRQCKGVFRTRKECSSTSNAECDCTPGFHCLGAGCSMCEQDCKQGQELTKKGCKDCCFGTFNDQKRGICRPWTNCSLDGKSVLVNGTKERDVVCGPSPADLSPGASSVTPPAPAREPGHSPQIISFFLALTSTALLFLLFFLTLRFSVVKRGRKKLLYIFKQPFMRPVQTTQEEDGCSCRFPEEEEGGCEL
T6 sequence (P25942 21-194 limits assumed): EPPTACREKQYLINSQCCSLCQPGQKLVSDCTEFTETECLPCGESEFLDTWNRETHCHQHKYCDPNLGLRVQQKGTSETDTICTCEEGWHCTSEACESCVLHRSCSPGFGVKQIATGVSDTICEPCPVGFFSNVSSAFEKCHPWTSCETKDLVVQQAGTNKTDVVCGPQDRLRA
T9 sequence (P51654 25-559 limits assumed): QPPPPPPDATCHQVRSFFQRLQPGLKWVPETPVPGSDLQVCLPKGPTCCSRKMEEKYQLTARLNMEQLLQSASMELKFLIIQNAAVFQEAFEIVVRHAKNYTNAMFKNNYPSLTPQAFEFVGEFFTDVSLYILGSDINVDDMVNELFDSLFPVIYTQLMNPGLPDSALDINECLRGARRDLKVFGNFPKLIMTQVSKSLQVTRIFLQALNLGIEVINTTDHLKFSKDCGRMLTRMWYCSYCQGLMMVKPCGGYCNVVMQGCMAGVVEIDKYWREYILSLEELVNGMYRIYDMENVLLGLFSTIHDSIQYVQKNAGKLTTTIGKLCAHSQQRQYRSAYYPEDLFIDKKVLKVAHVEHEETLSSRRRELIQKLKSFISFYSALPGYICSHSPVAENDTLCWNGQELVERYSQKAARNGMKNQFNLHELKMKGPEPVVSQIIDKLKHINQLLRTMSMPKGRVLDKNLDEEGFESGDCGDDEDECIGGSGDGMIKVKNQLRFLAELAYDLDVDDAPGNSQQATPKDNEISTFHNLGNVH

B1: anti-CEA Ab (IgG1) (antibody, V domains shown)
VH: QVQLVQSGAEVKKPGASVKVSCKASGYIFTSYYLHWVRQAPGQGLEWIGYINPQTGKTSYAQKFQGRVTMTRDTSTSTVYMELSSLRSEDTAVYYCAREYGNYNYPLDYWGQGTLVTVSS
VL: DIQMTQSPSSLSASVGDRVTITCRASENQYGYLAWYQQKPGKVPKLLIYNYKNLVEGVPSRFSGSGSGTDFTLTISSLQPEDVATYYCQHHLGTPYTFGQGTKVEIKR
notes: also called anti-CEA antibody
binding result [1]: no binding (tested: just above 10^2 ug/ml)
EC50 (read off the curve) (human CEA on cells [2]): ~1 µg/mL
EC50 (read off the curve) (human CEA on cells [3]): ~0.5 µg/mL

B3: A-CD137×CEA-M3 (bispecific antibody, human IgG1, kappa)
heavy: QVQLVQSGAEVKKPGASVKVSCKASGYIFTSYYLHWVRQAPGQGLEWIGYINPQTGKTSYAQKFQGRVTMTRDTSTSTVYMELSSLRSEDTAVYYCAREYGNYNYPLDYWGQGTLVTVSSASTKGPSVFPLAPSSKSTSGGTAALGCLVKDYFPEPVTVSWNSGALTSGVHTFPAVLQSSGLYSLSSVVTVPSSSLGTQTYICNVNHKPSNTKVDKKVEPKSCDKTHTCPPCPAPPAAGPSVFLFPPKPKDTLMISRTPEVTCVVVDVSHEDPEVKFNWYVDGVEVHNAKTKPREEQYNSTYRVVSVLTVLHQDWLNGKEYKCKVSNKALAAPIEKTISKAKGQPREPQVYTLPPSREEMTKNQVSLTCLVKGFYPSDIAVEWESNGQPENNYKTTPPVLDSDGSFFLYSKLTVDKSRWQQGNVFSCSVMHEALHNHYTQKSLSLSPGKGGGGSEVQLLESGGGLVQPGGSLRLSCAASGFTLSAEDVGWVRQAPGKGLEWVSAILDFGGSTYYAESVKGRFTISRDNAKNTLYLQMSSLRAEDTAVYYCARVVYHAGGGVTFDYWGQGTLVTVSS
light: DIQMTQSPSSLSASVGDRVTITCRASENQYGYLAWYQQKPGKVPKLLIYNYKNLVEGVPSRFSGSGSGTDFTLTISSLQPEDVATYYCQHHLGTPYTFGQGTKVEIKRTVAAPSVFIFPPSDEQLKSGTASVVCLLNNFYPREAKVQWKVDNALQSGNSQESVTEQDSKDSTYSLSSTLTLSKADYEKHKVYACEVTHQGLSSPVTKSFNRGEC
notes: The chain is therefore built from its pieces
Kd (human CD137 ECD-mIgG2a [5]): 289 nM
Kd (human CD137 ECD-mIgG2a [6]): 255 nM
koff (human CD137 ECD-mIgG2a [6]): 0.00267 s⁻¹
kon (human CD137 ECD-mIgG2a [6]): 10500 M⁻¹ s⁻¹
Kd (human CD137 ECD-mIgG2a [7]): 255 nM
EC50 [8]: 0.52 µg/mL

B4: BE-146 (CEA × CD137) (bispecific antibody, human IgG1, kappa)
heavy: QVQLVQSGAEVKKPGASVKVSCKASGYIFTSYYLHWVRQAPGQGLEWIGYINPQTGKTSYAQKFQGRVTMTRDTSTSTVYMELSSLRSEDTAVYYCAREYGNYNYPLDYWGQGTLVTVSSASTKGPSVFPLAPSSKSTSGGTAALGCLVKDYFPEPVTVSWNSGALTSGVHTFPAVLQSSGLYSLSSVVTVPSSSLGTQTYICNVNHKPSNTKVDKKVEPKSCDKTHTCPPCPAPPAAGPSVFLFPPKPKDTLMISRTPEVTCVVVDVSHEDPEVKFNWYVDGVEVHNAKTKPREEQYNSTYRVVSVLTVLHQDWLNGKEYKCKVSNKALAAPIEKTISKAKGQPREPQVYTLPPSREEMTKNQVSLTCLVKGFYPSDIAVEWESNGQPENNYKTTPPVLDSDGSFFLYSKLTVDKSRWQQGNVFSCSVMHEALHNHYTQKSLSLSPGKGGGGSEVQLLESGGGLVQPGGSLRLSCAASGFTVSAEDVGWVRQAPGKGLEWVSAILDKGGSTYYAESVKGRFTISRDNAKNTLYLQMSSLRAEDTAVYYCARIVYHAGGGVTFDTRGQGTQVTVSS
light: DIQMTQSPSSLSASVGDRVTITCRASENQYGYLAWYQQKPGKVPKLLIYNYKNLVEGVPSRFSGSGSGTDFTLTISSLQPEDVATYYCQHHLGTPYTFGQGTKVEIKRTVAAPSVFIFPPSDEQLKSGTASVVCLLNNFYPREAKVQWKVDNALQSGNSQESVTEQDSKDSTYSLSSTLTLSKADYEKHKVYACEVTHQGLSSPVTKSFNRGEC
notes: Module ratio 2:2
Kd (recombinant CEA protein): 6.5 nM
EC50 (read off the curve) (human CEA on cells [3]): ~0.5 µg/mL
Kd [9]: 167 nM

Next, values leading:

IC50 (read off the curve) [4]: ~0.03 µg/mL
binding result (TNFRSF1B(CD120b)): no binding
binding result (TNFRSF1A(CD120a)): no binding
binding result (TNFRSF7(CD27)): no binding
binding result (human CD40 ECD): no binding
B2: Urelumab analog (antibody, human IgG4 S228P, kappa, V domains shown)
VH: QVQLQQWGAGLLKPSETLSLTCAVYGGSFSGYYWSWIRQSPEKGLEWIGEINHGGYVTYNPSLESRVTISVDTSKNQFSLKLSSVTAADTAVYYCARDYGPGNYDWYFDLWGRGTLVTVSS
VL: EIVLTQSPATLSLSPGERATLSCRASQSVSSYLAWYQQKPGQAPRLLIYDASNRATGIPARFSGSGSGTDFTLTISSLEPEDFAVYYCQQRSNWPPALTFGGGTKVEIKR

Kd [10]: 1.47 nM
EC50 (read off the curve) [11]: ~0.7 µg/mL
Kd [9]: 182 nM
B5: BE-830 (GPC3 × CD137) (bispecific antibody, human IgG1, kappa)
heavy: not shown
light: DVVMTQSPLSLPVTPGEPASISCRSSQSLVHSNRNTYLHWYLQKPGQSPQLLIYKVSNRFSGVPDRFSGSGSGTDFTLKISRVEAEDVGVYYCSQNTHVPPTFGQGTKLEIKRTVAAPSVFIFPPSDEQLKSGTASVVCLLNNFYPREAKVQWKVDNALQSGNSQESVTEQDSKDSTYSLSSTLTLSKADYEKHKVYACEVTHQGLSSPVTKSFNRGEC
notes: also called CD137×GPC3; GPC3×CD137 multispecific antibody BE-830
